These results are taken from PMC5688852.

In this series the target is T1, TTP-2D (tristetraprolin, both CCCH zinc fingers) (UniProt P22893).
T1 sequence: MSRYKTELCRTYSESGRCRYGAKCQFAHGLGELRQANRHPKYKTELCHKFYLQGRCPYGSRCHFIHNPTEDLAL
The experiment in a line: fluorescence anisotropy.

For the molecule UUUAUUUAUUU (ssRNA) [UUUAUUUAUUU-F (AU-rich element)], the binding result was “binds”.
